The values below come from patent US20250277003A1.

Assay [1] deals with SARS-CoV-2 spike receptor-binding domain, wildtype (CoV-2 RBD WT) (SARS-CoV-2) (UniProt P0DTC2). In words: bead flow cytometry. On the technique in general: In flow cytometry, cells or beads pass a laser one at a time.
In assay [2] the target is BatCoV Anlong-103 spike RBD (BatCoV Anlong-103). In words: bead flow cytometry.

As for mAb CR3022 (antibody), the gMFI in assay [1] amounted to 25800; in assay [2] it was 12900.
Turning to mAb S309 (antibody), the gMFI came to 8370 in assay [1] and 69.3 in assay [2].
